Experimental findings from PMC8571082 (2021) are described below.

Experiment [1] concerns the target T1, factor inhibiting HIF-1 (FIH-1), full-length (human, UniProt Q9NWT6 1-349). As to the kind of experiment: ITC; +αKG, +EDTA. On the technique in general: In ITC the heat of successive injections is recorded.
The target of experiment [2] is T1, factor inhibiting HIF-1 (FIH-1), …. The experiment is described as follows: ITC; +αKG, -EDTA.
Experiment [3] has the same target. The experiment is described as follows: ITC; -αKG, +EDTA.
Experiment [4] shares this target. The experiment is described as follows: ITC; -αKG, -EDTA.

T1 sequence (Q9NWT6 whole entry): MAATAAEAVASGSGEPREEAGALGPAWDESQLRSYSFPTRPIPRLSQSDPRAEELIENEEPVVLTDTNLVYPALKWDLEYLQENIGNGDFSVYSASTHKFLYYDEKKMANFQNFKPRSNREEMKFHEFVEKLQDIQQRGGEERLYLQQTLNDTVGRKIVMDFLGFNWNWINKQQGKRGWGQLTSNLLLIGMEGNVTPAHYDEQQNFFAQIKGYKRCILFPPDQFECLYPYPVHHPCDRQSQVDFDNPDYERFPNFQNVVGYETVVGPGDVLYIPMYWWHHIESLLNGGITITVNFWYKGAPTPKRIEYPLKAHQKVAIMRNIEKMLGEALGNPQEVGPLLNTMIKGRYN

B1: Mint3NT, N-terminal fragment (1–214) of Mint3 (domain or fragment)
chain: MDFPTISRSPSGPPAMDLEGPRDILVPSEDLTPDSQWDPMPGGPGSLSRMELDESSLQELVQQFEALPGDLVGPSPGGAPCPLHIATGHGLASQEIADAHGLLSAEAGRDDLLGLLHCEECPPSQTGPEEPLEPAPRLLQPPEDPDEDSDSPEWVEGASAEQEGSRSSSSSPEPWLETVPLVTPEEPPAGAQSPETLASYPAPQEVPGPCDHED
The Kd is the concentration at which binding is half-saturated. As for B1, the Kd in experiment [1] came out at 2.2 µM; in experiment [2], 1 µM; in experiment [3], 8.1 µM; in experiment [4], 3.4 µM.
